Binding signal and Kd data for one molecule are collected here from article PMC3695512, “Recognition of two distinct elements in the RNA substrate by the RNA-binding domain of the T. thermophilus DEAD box helicase Hera”.

In one data set the target is T1, Hera_RBD G462C (Thermus thermophilus, UniProt O07897 424-510, G462C).
T1 sequence: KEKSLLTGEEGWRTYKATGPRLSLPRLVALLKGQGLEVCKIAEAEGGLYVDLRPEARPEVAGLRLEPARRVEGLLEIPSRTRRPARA
Nature of the data set: fluorescence anisotropy; 5 mM Mg2+; negligible effect; Anisotropy: 50 mM Tris/HCl pH 7.5, 150 mM NaCl, 5 mM MgCl2 (Fig 2), 25 C, 50 nM RNA; EMSA: same Tris/NaCl, 12% glycerol, 25 C; NMR: 25 mM Bis-Tris/HCl pH 6.0, 50 mM NaCl, 10% D2O, 37 C. The following applies: protein: recombinant; label: 5'-fluorescein; hairpin with 5' single strand. (Fluorescence polarisation rises when a labelled molecule tumbles more slowly, as on binding a larger partner.)

In a further data set the target is T2, Hera_RBD K463A (Thermus thermophilus, UniProt O07897 424-510, K463A).
T2 sequence: T1 sequence with C39G, K40A
Kind of data set: fluorescence anisotropy; 5 mM Mg2+; text also says abolishes binding; Anisotropy: 50 mM Tris/HCl pH 7.5, 150 mM NaCl, 5 mM MgCl2 (Fig 2), 25 C, 50 nM RNA; EMSA: same Tris/NaCl, 12% glycerol, 25 C; NMR: 25 mM Bis-Tris/HCl pH 6.0, 50 mM NaCl, 10% D2O, 37 C. The following applies: protein: recombinant; label: 5'-fluorescein; hairpin with 5' single strand.

The next data set deals with T3, Hera_RBD_dC-tail (Thermus thermophilus, UniProt O07897 424-491, del492-510).
T3 sequence: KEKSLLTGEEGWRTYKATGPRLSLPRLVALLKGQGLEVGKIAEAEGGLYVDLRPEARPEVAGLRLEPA
Kind of data set: fluorescence anisotropy; 5 mM Mg2+; Anisotropy: 50 mM Tris/HCl pH 7.5, 150 mM NaCl, 5 mM MgCl2 (Fig 2), 25 C, 50 nM RNA; EMSA: same Tris/NaCl, 12% glycerol, 25 C; NMR: 25 mM Bis-Tris/HCl pH 6.0, 50 mM NaCl, 10% D2O, 37 C. The note with it: protein: recombinant; label: 5'-fluorescein; hairpin with 5' single strand.

For a further data set, the target named is T4, Hera_K463A (Thermus thermophilus, UniProt O07897 1-510, K463A).
T4 sequence: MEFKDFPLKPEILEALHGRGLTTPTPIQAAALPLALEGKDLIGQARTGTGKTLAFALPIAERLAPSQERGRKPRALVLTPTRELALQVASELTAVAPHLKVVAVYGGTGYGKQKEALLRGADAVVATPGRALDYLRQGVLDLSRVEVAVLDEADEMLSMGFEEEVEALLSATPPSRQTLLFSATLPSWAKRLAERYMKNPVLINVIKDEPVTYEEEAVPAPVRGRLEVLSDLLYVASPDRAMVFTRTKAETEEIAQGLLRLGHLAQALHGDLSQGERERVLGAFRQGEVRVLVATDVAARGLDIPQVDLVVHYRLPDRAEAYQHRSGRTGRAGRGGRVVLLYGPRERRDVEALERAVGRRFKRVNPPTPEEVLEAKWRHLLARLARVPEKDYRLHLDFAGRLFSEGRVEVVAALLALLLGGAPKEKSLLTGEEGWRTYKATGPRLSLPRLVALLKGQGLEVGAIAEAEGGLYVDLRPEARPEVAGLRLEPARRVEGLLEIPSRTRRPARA
The data set is described as above. The following applies: protein: recombinant; chain copies: 2; label: 5'-fluorescein; hairpin with 5' single strand.

The target of another data set is T5, Hera_1-491 (Thermus thermophilus, UniProt O07897 1-491, del492-510).
T5 sequence: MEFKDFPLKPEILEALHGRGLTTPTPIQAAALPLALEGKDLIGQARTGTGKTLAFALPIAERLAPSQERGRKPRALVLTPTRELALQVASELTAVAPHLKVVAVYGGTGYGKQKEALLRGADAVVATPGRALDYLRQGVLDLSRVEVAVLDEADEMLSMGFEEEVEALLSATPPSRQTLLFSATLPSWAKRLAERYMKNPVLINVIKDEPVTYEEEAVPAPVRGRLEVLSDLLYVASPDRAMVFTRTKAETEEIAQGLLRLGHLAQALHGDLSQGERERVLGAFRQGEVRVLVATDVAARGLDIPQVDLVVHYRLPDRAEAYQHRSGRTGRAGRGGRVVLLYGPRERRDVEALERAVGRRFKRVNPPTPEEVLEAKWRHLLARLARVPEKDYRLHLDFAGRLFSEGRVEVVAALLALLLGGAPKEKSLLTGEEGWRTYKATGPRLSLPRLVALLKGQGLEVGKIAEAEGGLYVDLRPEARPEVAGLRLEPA
Described as above. The following applies: protein: recombinant; chain copies: 2; label: 5'-fluorescein; hairpin with 5' single strand.

In a further data set the target is T6, Hera_208-419 (RecA_C_DD) (Thermus thermophilus, UniProt O07897 208-419).
T6 sequence: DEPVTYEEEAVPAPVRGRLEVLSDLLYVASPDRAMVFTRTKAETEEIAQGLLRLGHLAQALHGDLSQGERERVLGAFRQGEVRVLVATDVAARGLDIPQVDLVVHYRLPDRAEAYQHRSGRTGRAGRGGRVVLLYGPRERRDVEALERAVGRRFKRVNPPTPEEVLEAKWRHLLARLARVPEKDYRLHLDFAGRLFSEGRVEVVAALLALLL
Kind of data set: fluorescence anisotropy; 5 mM Mg2+; compared with full-length Hera; Anisotropy: 50 mM Tris/HCl pH 7.5, 150 mM NaCl, 5 mM MgCl2 (Fig 2), 25 C, 50 nM RNA; EMSA: same Tris/NaCl, 12% glycerol, 25 C; NMR: 25 mM Bis-Tris/HCl pH 6.0, 50 mM NaCl, 10% D2O, 37 C. The note with it: protein: recombinant; chain copies: 2; label: 5'-fluorescein; hairpin with 5' single strand.

Substitutions are numbered along the chain they refer to.

The term Kd denotes the equilibrium constant for the complex coming apart. With GCAGGUCCCAAGGGUUGGGCUGUUCGCCCAUU (structured_RNA) [32mer], the binding signal was under 5 fold Kd increase with Hera_RBD G462C, over 25 fold Kd increase with Hera_RBD K463A and about 70 fold Kd increase with Hera_208-419 (RecA_C_DD). Also, the Kd with Hera_RBD_dC-tail came to 13 µM; with Hera_K463A, 1000 ± 170 nM; with Hera_1-491 it was 1100 ± 130 nM.
